We go through 1 molecule from PMC2886027.

The target of the series is T1, DraTopIB (Deinococcus radiodurans, UniProt Q9RWH8 1-346).
T1 sequence: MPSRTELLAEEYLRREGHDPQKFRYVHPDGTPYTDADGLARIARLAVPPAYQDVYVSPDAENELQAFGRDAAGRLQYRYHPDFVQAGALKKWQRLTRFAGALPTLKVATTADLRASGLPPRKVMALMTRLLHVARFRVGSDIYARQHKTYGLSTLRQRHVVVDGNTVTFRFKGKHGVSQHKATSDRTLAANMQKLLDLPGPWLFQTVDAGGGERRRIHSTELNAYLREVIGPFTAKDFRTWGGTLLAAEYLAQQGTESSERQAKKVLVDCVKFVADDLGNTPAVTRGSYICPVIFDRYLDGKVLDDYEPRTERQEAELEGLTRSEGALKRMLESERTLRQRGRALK
Description: crystal structure.

B1: 12-bp duplex (dsDNA)
DNA 1: GAATAAGGGCGC
DNA 2: GCGCCCTTATTC
Take B1: the binding result is reported as “binds”.
